Results taken from patent US20250382344A1, “Soluble GLP1/GIP/NPY2 Receptor Triple Agonists” (Boehringer Ingelheim International GmH, priority 2024, published 2025).
*1 amine or outer side, *2 acyl side, *3 side chain or, on linkers, in order; H or OH if unused. Where no end group is shown, it is not given here. Side-chain parts run from the residue outwards. [ ]: non-standard residue; d: D form. The star is where a group is joined. C20 diacid = O=C(O)CCCCCCCCCCCCCCCCCCC(=O)*; C18 diacid = O=C(O)CCCCCCCCCCCCCCCCC(=O)*; γGlu = O=C(O)[C@H](CCC(=O)[*:2])N[*:1]; εLys = N[C@@H](CCCCN[*:1])C(=O)[*:2]; dtOrn = not defined here; Aib = CC(C)(N)C(=O)O

T1: human GIP receptor (human, UniProt P48546 22-466)
T1 sequence (looked up): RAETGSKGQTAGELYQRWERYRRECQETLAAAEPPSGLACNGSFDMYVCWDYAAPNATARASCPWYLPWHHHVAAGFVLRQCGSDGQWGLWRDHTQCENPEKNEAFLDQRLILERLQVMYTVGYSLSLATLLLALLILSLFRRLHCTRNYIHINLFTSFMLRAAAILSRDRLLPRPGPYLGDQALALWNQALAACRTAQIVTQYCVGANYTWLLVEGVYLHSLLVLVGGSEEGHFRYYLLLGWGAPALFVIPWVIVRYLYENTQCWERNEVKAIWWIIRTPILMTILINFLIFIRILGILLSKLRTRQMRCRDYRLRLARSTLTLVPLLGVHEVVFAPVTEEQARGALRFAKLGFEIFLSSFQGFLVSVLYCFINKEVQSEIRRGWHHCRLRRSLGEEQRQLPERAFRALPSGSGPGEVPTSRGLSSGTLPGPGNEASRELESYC

T2: human neuropeptide Y2 receptor (human, UniProt P49146 1-381)
T2 sequence (looked up): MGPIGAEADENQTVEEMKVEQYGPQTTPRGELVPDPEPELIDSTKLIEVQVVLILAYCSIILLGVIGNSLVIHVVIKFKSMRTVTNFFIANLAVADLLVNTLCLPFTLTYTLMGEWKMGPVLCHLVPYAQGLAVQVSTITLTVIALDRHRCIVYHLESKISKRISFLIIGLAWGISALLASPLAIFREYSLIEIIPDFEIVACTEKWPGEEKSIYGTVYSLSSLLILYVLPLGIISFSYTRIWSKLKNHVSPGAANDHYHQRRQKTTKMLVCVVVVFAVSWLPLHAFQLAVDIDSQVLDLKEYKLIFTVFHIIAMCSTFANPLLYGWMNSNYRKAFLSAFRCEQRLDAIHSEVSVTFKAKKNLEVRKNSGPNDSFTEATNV


How the values were obtained:
Experiment in all cases: cell-based or functional assay
human GIP receptor = biological target: T1, human GIP receptor
[1] = biological target: T2, human neuropeptide Y2 receptor
human GLP-1 receptor = human GLP-1 receptor (human, UniProt P43220 24-463)

Binder	EC50, CreLuc reporter, 0.5% hP (human GIP receptor) [nM]	EC50, CreLuc reporter, 100% hP (human GIP receptor) [nM]	EC50, CreLuc reporter, 100% hP [1] [nM]	EC50, CreLuc reporter, 0.5% hP (human GLP-1 receptor) [nM]	EC50, CreLuc reporter, 100% hP (human GLP-1 receptor) [nM]	EC50, CreLuc reporter, 0.5% hP [1] [nM]
YXEGTFTSDYSIXLEKQAQXAFIRHLINKXTRQRY (Aib at 2, 13, 20, 30; Lys29 epsilon-amino: C18DA-gGlu-gGlu-gGlu-gGlu-gGlu-gGlu-eLys; C-terminal amide) [Compound 88]	0.1	1.7	30.9	0.2	1.8	
YXEGTFTSDYSIXLEKQAQXAFIRHLINKXTRQRY (Aib at 2, 13, 20, 30; Lys29 epsilon-amino: C20DA-gGlu-gGlu-gGlu-gGlu-gGlu-gGlu-eLys; C-terminal amide) [Compound 109]	0.3			0.8		
YXEGTFTSDYSIXLEEQAQXAFVRHLINKXTRQRY (Aib at 2, 20, 30; aMeL at 13; Lys29 epsilon-amino: C20DA-gGlu-gGlu-gGlu-gGlu-gGlu-gGlu-eLys; C-terminal amide) [Compound 89]		0.9		0.2	1.7	
YXEGTFTSDYSIXLEKQRQXAFVRHLINKXTRQRY (Aib at 2, 13, 20, 30; Lys29 epsilon-amino: C18DA-gGlu-gGlu-gGlu-gGlu-gGlu-gGlu-eLys; C-terminal amide) [Compound 91]	0.8	14.4	45.2		13.7	9.7
YXEGTFTSDYSIXLEKQAQXAFVRHLINKXTRQRY (Aib at 2, 13, 20, 30; Lys29 epsilon-amino: C20DA-gGlu-gGlu-gGlu-gGlu-gGlu-gGlu-gGlu; C-terminal amide) [Compound 101]	1				20	
YXEGTFTSDYSIXLEKQAQXAFVRHLINKXTRQXY (Aib at 2, 13, 20, 30; bhArg at 34; Lys29 epsilon-amino: C18DA-gGlu-gGlu-gGlu-gGlu-gGlu-gGlu-eLys; C-terminal amide) [Compound 146]			89.8	1		51.5
YXEGTFTSDYSIXLEKQAQXEFVRHLINKXTRQRY (Aib at 2, 13, 20, 30; Lys29 epsilon-amino: C20DA-gGlu-gGlu-gGlu-gGlu-gGlu-gGlu-eLys; C-terminal amide) [Compound 149]			166		3.3	
YXEGTFTSDYSIXLEKQAQXEFVRHLINKXTRQRY (Aib at 2, 13, 20, 30; Lys29 epsilon-amino: C18DA-gGlu-gGlu-gGlu-gGlu-gGlu-gGlu-eLys; C-terminal amide) [Compound 145]			94.2	0.5	1.8	
YXEGTFTSDYSIXLERQAQXAFVRHLINKXTRQRY (Aib at 2, 13, 20, 30; Lys29 epsilon-amino: C18DA-gGlu-gGlu-gGlu-gGlu-gGlu-gGlu-eLys; C-terminal amide) [Compound 124]	0.1	4		0.5		
YXEGTFTSDYSIXLEKQAQXAFVRHLINKXTRQXY (Aib at 2, 13, 20, 30; dOR at 34; Lys29 epsilon-amino: C18DA-gGlu-gGlu-gGlu-gGlu-gGlu-gGlu-eLys; C-terminal amide) [Compound 90]		0.6		2		
YXEGTFTSDLSIXLEKQAQXAFVRHLLNKXTRQRY (Aib at 2, 13, 20, 30; Lys29 epsilon-amino: C20DA-gGlu-gGlu-gGlu-gGlu-gGlu-gGlu-eLys; C-terminal amide) [Compound 115]			107	7	9.8	10.1
YXEGTFTSDYSIXLDKQAQXAFVRHLINKXTRQRY (Aib at 2, 13, 20, 30; Lys29 epsilon-amino: C18DA-gGlu-gGlu-gGlu-gGlu-gGlu-gGlu-eLys; C-terminal amide) [Compound 105]			49.6	0.3	3.4	19.9
Y[Aib]EGTFTSDYSI[Aib]LEKQAQ[Aib]AFVRHLINK([dtOrn-γGlu-γGlu-γGlu-γGlu-γGlu-γGlu-C18 diacid])[Aib]TRQRY-NH2 (reading uncertain) [Compound 87]					5.6	16.5
Y[Aib]EGTFTSDLSI[Aib]LEKQAQ[Aib]AFVRHLINK([γGlu-γGlu-εLys-γGlu-γGlu-γGlu-γGlu-C20 diacid])[Aib]TRQRY-NH2 [Compound 166]	0.6			8		
